The target of experiment [1] is T1, human CEACAM5 expressed on the surface of tumor cells (human, UniProt P06731 35-685).
T1 construct: Endogenous CEACAM5 of human tumor cells; also called hCEACAM5 on MKN45 cells; CEACAM5 on CR-IGR-034P primary colon tumor cells
T1 sequence: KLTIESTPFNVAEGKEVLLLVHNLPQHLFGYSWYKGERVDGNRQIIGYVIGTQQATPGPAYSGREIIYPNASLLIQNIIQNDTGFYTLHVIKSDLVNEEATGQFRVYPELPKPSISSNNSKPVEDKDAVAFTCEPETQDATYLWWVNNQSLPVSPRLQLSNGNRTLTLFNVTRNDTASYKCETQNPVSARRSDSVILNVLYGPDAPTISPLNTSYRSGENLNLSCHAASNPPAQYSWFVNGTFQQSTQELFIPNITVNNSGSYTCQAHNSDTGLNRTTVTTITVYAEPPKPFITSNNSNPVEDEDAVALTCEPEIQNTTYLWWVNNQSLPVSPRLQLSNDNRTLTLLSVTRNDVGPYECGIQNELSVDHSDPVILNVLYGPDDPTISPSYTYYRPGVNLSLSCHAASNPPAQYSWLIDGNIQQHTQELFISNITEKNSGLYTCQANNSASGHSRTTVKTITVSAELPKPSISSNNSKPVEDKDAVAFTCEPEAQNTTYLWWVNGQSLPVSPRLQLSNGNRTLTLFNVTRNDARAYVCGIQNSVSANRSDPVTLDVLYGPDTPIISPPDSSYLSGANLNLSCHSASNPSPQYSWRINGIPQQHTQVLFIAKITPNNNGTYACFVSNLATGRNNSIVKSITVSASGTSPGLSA
Nature of the experiment: flow cytometry on CR-IGR-034P primary colon tumor cells. The protocol:
Advanced human primary colon tumor CR-IGR-034P (Julien et al., Clin Cancer Res Oct. 1, 2012 18:5314-5328) was obtained from Patient-derived xenograft in mice. Tumor CR-IGR-034P was enzymatically dissociated using collagenase Type IV (Invitrogen; #17104-019) and deoxyribonuclease I (Invitrogen; #18047-019) for 1 h at […], Cell viability was estimated by Viacount application using Guava® easyCyte™ 8HT Flow Cytometry System. […] 100 μL/well of goat anti-mouse IgG conjugated with Alexa647 (Invitrogen; # A2135) or goat anti-human IgG conjugated with Alexa488 (Invitrogen; # A11013) was added for 45 min at 4° C. and washed three times with PBS 1% BSA. The antibody binding was evaluated after centrifugation and resuspension of cells by adding 200 pliwell PBS 1% BSA and read using Guava® easyCyte™ 8HT Flow Cytometry System. Apparent KD and EC50 values were estimated using BIOST@T-BINDING and BIOST@T-SPEED softwares, respectively.
In general terms: Flow cytometry measures light scatter and fluorescence of single cells or particles in a stream.

Experiment [2] has as its target T2, cCEACAM5 A3B3, M. fascicularis CEACAM5 A3-B3 domain (499-688) (Macaca fascicularis).
T2 construct: Followed by 24 amino acid extension containing a His-Tag; also called cynomolgus CEACAM5 A3-B3
T2 chain: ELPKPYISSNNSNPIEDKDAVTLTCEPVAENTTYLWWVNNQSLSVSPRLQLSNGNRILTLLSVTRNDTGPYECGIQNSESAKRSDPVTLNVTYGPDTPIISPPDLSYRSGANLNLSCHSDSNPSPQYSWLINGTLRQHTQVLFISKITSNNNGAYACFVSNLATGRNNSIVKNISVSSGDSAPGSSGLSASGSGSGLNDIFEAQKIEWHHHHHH
Nature of the experiment: ELISA on coated recombinant CEACAM5 protein or domain, anti-mouse IgG-HRP, OD 450 nm. The protocol: Domain mapping of anti-CEACAM5 antibodies to human CEACAM5 and cynomolgus CEACAM5 proteins was determined by ELISA. […] Purified antibodies were added to the plates and detected by using rabbit anti-mouse IgG conjugated with horseradish peroxidase (Sigma; #A9044). Antibody binding was visualized by adding TMB-H2O2 buffer and read at a wavelength of 450 nm.
On the technique in general: ELISA stands for enzyme-linked immunosorbent assay.

In experiment [3] the target is T3, hCEACAM1, human CEACAM1 ECD (35-428) (human, UniProt P13688 35-428).
T3 construct: With 24 amino acid extension containing a His-Tag; also called hEACAM1
T3 sequence: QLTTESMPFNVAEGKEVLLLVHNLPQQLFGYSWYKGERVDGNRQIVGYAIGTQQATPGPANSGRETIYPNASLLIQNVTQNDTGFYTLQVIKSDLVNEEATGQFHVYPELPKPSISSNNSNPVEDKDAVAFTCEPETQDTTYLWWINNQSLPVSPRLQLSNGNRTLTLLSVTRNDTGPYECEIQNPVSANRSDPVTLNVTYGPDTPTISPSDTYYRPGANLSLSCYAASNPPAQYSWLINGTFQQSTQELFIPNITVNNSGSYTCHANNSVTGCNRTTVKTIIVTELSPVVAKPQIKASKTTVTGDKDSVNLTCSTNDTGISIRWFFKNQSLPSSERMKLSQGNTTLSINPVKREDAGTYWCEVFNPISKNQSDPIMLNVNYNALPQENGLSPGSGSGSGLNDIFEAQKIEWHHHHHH
Nature of the experiment: ELISA.

The target of experiment [4] is T4, hCEACAM8, human CEACAM8 ECD (35-332) (human, UniProt P31997 35-332).
T4 construct: With 24 amino acid extension containing a His-Tag
T4 sequence: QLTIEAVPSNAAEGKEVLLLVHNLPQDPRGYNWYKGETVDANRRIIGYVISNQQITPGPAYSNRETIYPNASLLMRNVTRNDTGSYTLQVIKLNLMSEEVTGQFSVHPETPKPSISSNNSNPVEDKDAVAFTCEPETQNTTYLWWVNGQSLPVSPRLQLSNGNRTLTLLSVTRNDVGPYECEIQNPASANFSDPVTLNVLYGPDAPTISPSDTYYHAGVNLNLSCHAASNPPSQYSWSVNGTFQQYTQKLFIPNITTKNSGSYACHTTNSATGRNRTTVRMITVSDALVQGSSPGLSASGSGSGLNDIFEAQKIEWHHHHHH
Nature of the experiment: ELISA.

For experiment [5], the target named is T5, hCEACAM6, human CEACAM6 ECD (35-327) (human, UniProt P40199 35-327).
T5 construct: With 24 amino acid extension containing a His-Tag
T5 sequence: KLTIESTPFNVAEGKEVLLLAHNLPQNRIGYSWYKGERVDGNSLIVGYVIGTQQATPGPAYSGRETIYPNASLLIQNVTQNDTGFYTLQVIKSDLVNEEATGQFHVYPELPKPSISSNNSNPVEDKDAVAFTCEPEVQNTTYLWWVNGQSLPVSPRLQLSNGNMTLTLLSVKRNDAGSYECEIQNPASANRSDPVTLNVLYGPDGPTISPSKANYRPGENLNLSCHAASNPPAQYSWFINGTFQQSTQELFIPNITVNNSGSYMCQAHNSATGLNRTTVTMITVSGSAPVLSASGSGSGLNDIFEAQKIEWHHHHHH
Nature of the experiment: ELISA.

The results in this text go back to patent US20220340682A1 (Sanofi, published 2022).

B1: antibody MAb4 (antibody, IgG1, V domains shown)
VH: EVQLVESGGGLVKPGGSLKLSCAASGFTFSSYDMSWVRQTPEKRLEWVAFISSYGGRTYYADTVKGRFTISRDNAKNTLYLQMSSLKSEDTAMFYCAAHYFGTSGPFAYWGQGTLVTVSA
VL: DIQMTQSPASLSASVGETVTITCRASENIYSYFAWYQQKQGKSPQLLVYNAKILAEGVPSRFSGSGSGTQFSLKINSLQPEDFGTYYCQHHYGIPFTFGSGTKLELK
notes: Murine monoclonal from hybridoma, IgG1, kappa
By EC50 is commonly meant the concentration that produces a half-maximal response. Molecule B1 came in with an EC50 in experiment [1] of 0.2 nM. In addition, the binding result in experiment [2] is “binds”.

B2: antibody MAb5 (antibody, IgG1, V domains shown)
VH: ELQLVESGGVLVKPGGSLKLSCAASGFAFSSYDMSWVRQTPEKRLEWVTYINSGGGITYYPDTVKGRFTISRDNARNTLYLQMSSLKSEDTAIYYCTAHYFGSSGPFAYWGQGTLVTVSA
VL: DIQMTQSPASLSASVGETVTITCRASENIYSYLAWYQQKQGKSPQLLVYNAKTLTEGVPSRFSGSGSGTQFSLKINSLQPEDFGSYYCQHHYGTPFTFGSGTKLEIK
notes: as for B1
For B2, a half-maximal effect in experiment [1] (EC50) was put at 1.4 nM. Further, the binding result in experiment [2] is reported as “binds”.

B3: huMAb2-3 (antibody, human IgG1, kappa, V domains shown)
VH: EVQLQESGPGLVKPGGSLSLSCAASGFVFSSYDMSWVRQTPERGLEWVAYISSGGGITYAPSTVKGRFTVSRDNAKNTLYLQMNSLTSEDTAVYYCAAHYFGSSGPFAYWGQGTLVTVSS
VL: DIQMTQSPASLSASVGDRVTITCRASENIFSYLAWYQQKPGKSPKLLVYNTRTLAEGVPSRFSGSGSGTDFSLTISSLQPEDFATYYCQHHYGTPFTFGSGTKLEIKR
notes: Humanized MAb2, human IgG1 / Ckappa; also called MAb2_VL1cVH1a-IgG1
On to B3, for which the figures for the “percentage of binding compared to full binding with human CEACAM5” value (shortened to “percentage of binding”) in experiment [3], in experiment [4] and in experiment [5] were 0.3%, 0.6% and 0.3%, respectively.

B4: huMAb2-1 (antibody, V domains shown)
VH: EVQLQESGPGLVKPGGSLSLSCAASGFVFSSYDMSWVRQTPERRLEWVAYISSGGGITYFPSTVKGRFTVSRDNAKNTLYLQMNSLTSEDTAIYYCAAHYFGSSGPFAYWGQGTLVTVSA
VL: DIQMTQSPASLSASVGDTVTITCRASENIFSYLAWYQQKPGKSPKLLVYNTKTLAEGVPSRFSGSGSGTQFSLTISSLQPEDFGSYYCQHHYGTPFTFGSGTKLEIK
notes: Humanized MAb2 (VL1 + VH1) fused to human IgG1 and human Ckappa constant domains; also called MAb2_VL1VH1-IgG1; MAb2VL1VH1-IgG1
On to B4, for which the “percentage of binding” value in experiment [3] is 0.3%; in experiment [4], 0.9%; in experiment [5], 0.2%.

B5: huMAb2-4 (antibody, human IgG1, kappa, V domains shown)
VH: EVQLQESGPGLVKPGGSLSLSCAASGFVFSSYDMSWVRQTPERRLEWVAYISSGGGITYFPSTVKGRFTVSRDNAKNTLYLQMNSLTSEDTAIYYCAAHYFGSSGPFAYWGQGTLVTVSA
VL: DIQMTQSPASLSASVGDTVTITCRASENIFSYLAWYQQKPGKSPKLLVYNTRTLAEGVPSRFSGSGSGTQFSLTISSLQPEDFGSYYCQHHYGTPFTFGSGTKLEIKR
notes: Humanized MAb2, human IgG1 / Ckappa; also called MAb2_VL1d VH1-IgG1; MAb2_VL1dVH1-IgG1
Turning to B5, the results for the “percentage of binding” value in experiment [3], in experiment [4] and in experiment [5] were 0.3%, 1.4% and 0.3%, respectively.

B6: huMAb2-2 (antibody, V domains shown)
VH: EVQLQESGPGLVKPGGSLSLSCAASGFVFSSYDMSWVRQTPERGLEWVAYISSGGGITYAPSTVKGRFTVSRDNAKNTLYLQMNSLTSEDTAVYYCAAHYFGSSGPFAYWGQGTLVTVSS
VL: DIQMTQSPASLSASVGDRVTITCRASENIFSYLAWYQQKPGKSPKLLVYNTKTLAEGVPSRFSGSGSGTDFSLTISSLQPEDFATYYCQHHYGTPFTFGSGTKLEIK
notes: Humanized MAb2 (VL1a + VH1a) fused to human IgG1 and human Ckappa constant domains; also called MAb2_VL1aVH1a-IgG1; MA2_VL1aVH1a-IgG1
For the molecule B6, the “percentage of binding” value in experiment [3] was determined as 0.3%; in experiment [4], 0.5%; in experiment [5], 0.3%.

B7: chMAb2 (antibody, human IgG1, kappa, V domains shown)
VH: EVQLQESGGVLVKPGGSLKLSCAASGFVFSSYDMSWVRQTPEKRLEWVAYISSGGGITYFPDTVQGRFTVSRDNAKNTLYLQMNSLKSEDTAIYYCAAHYFGSSGPFAYWGQGTLVTVSA
VL: DIQMTQSPASLSASVGETVTITCRASENIFSYLAWYQQKQGKSPQLLVYNTKTLAEGVPSRFSGSGSGTQFSLKINSLQPEDFGSYYCQHHYGTPFTFGSGTKLEIKR
notes: Chimeric, human IgG1, Ck isotype; also called MAb2-IgG1; chimeric MAb2
Consider B7, for which the “percentage of binding” value turned out to be 0.3% in experiment [3], 0.6% in experiment [4] and 0.3% in experiment [5].

B8: antibody MAb1 (antibody, IgG1, V domains shown)
VH: EVMLVESGGGLVKPGGSLKLSCAASGFTFSSYAMSWVRQTPEKRLEWVATISSGGSYIYYLDSVKGRFTISRDNAKNTLYLQMSSLRSEDTAMYYCARPAYYGNPAMDYWGQGTSVTVSS
VL: DILMTQSQKFMSTSVGDRVSVTCKASQNVGTNVAWYQQKPGQSPKPLIYSASYRYSGVPDRFTGSGSGTDFTLTISNVQSEDLAEYFCQQYNSYPLYTFGGGTKLEIK
For B8, the midpoint of the response in experiment [1], the EC50, lay at 1 nM. Besides, in experiment [2], the binding result is “binds”.

B9: antibody MAb3 (antibody, IgG1, V domains shown)
VH: EVKLVESGGGLVKPGGSLTLPCAASGFTFSRYAMSWVRQTPEKRLEWVASISSGGDTYYPDSVKGRFTVSRDNARNILFLQMSSLRSEDTGMYYCARVNYYDSSFLDWWGQGTTLTVSS
VL: DIVMTQSQRFMSTLEGDRVSVTCKASQNVGTNVAWYQQKPGQSPKALIYSASYRYSGVPDRFTGSGSGTDFTLTISNVQSEDLAEYFCQQYNNYPLYTFGGGTKLEIK
notes: as for B1
B9 had an EC50 in experiment [1] of 2.8 nM. In addition, in experiment [2], the binding result is given as “binds”.
